Assay results: patent publication US20220396632A1 (VERSEAU THERAPEUTICS, published 2022)
No end group written: not given here.

What was measured:
[1] = biological target: T1, Biotin PSGL-1(42-62) peptide, unmodified (human, C-terminal Lys-biotin); test: ELISA, plate-bound mAb captures biotin peptide
T1 construct: Residues 42-62 followed by GGGK-biotin; also called WT; wild-type
T1 peptide: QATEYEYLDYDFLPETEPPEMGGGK
How it was run: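 Direct format: anti-PSGL-1 mAb at a single concentration (2–500 nM) or serially diluted (0.002–100 nM) on immobilized target, detected with HRP anti-IgG and TMB at A450; 45 min steps at 37° C. Capture format: coated mAb (3 ug/mL) binds biotinylated unmodified or sulfotyrosine peptide (3 nM–3 uM), detected with HRP-streptavidin.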

[2] = biological target: T2, Biotin PSGL-1(42-62) E56A peptide (C-terminal Lys-biotin); test: ELISA, streptavidin-bound Ala peptide
T2 peptide: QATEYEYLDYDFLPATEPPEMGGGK

[3] = biological target: T3, PSGL-1(49-56)-Biotin (human, UniProt Q14242); test: ELISA, plate-immobilized biotin peptide
T3 construct: synthetic peptide; also called short PSGL-1 49-56 peptide with C-terminal biotin
T3 peptide (looked up): LDYDFLPE-biotin

[4] = biological target: T4, Biotin PSGL-1(42-62) Y46A peptide (C-terminal Lys-biotin); test: alanine-scan ELISA, streptavidin-immobilized biotin peptide
T4 peptide: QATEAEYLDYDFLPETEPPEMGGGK

[5] = biological target: T5, Biotin PSGL-1(42-62) D50A peptide (C-terminal Lys-biotin); test: ELISA, streptavidin-bound Ala peptide
T5 peptide: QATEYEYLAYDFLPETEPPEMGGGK

[6] = biological target: T6, Biotin PSGL-1(290-310) peptide (human, N-terminal acetyl; C-terminal Lys-biotin); test: ELISA, streptavidin-immobilized biotin peptide [cont.]
T6 peptide: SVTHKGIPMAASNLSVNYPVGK
Description: (§1) A typical ELISA experiment involved binding of a single concentration or serially diluted mAb in assay buffer (3% BSA in PBS containing 0.05% Tween®20, pH 7.4) onto BSA blocked high binding microtiter plate half-wells (Corning Cat. #3690), which contained PSGL-1 protein or streptavidin-immobilized biotin peptide. After incubation for 45 min. at 37° C., the plate was washed 3 times with wash buffer (PBS containing 0.05% Tween®20, pH 7.4), and an appropriate HRP-conjugated secondary antibody added (25 ul/well) (HRP goat anti-mouse or anti-human IgG). After 45 min. incubation at 37° C., the plate was washed and antibody bound to plate-immobilized target was determined at A450 nm using HRP substrate (3,3′5,5′-tetramethylbenzidine (TMB)). For each antibody, duplicate values were averaged and assay background subtracted.

[7] = biological target: T7, Biotin PSGL-1(105-125) peptide (human, N-terminal acetyl; C-terminal Lys-biotin); test: as above
T7 peptide: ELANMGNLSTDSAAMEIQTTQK
Description: as §1

[8] = biological target: T8, PSGL-1 endogenously expressed on HL-60 cells (UniProt Q14242 42-412); test: flow cytometry on HL-60 cells
T8 construct: whole, on cells
T8 sequence (looked up): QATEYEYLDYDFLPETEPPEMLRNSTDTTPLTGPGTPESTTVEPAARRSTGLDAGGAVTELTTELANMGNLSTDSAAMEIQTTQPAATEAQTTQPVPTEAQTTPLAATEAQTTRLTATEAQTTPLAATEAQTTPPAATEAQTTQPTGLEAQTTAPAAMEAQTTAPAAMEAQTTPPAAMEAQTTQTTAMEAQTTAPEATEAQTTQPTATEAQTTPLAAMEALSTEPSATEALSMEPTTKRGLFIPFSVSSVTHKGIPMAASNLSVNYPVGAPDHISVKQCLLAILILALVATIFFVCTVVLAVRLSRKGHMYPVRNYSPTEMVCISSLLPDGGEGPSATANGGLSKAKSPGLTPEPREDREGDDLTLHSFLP
Description: A typical flow cytometry assay was performed by resuspending HL-60 cells in FACS buffer (5% FBS and 0.05% Sodium Azide in PBS, pH 7.2) on ice, pelleting cells by centrifugation at 500×g for 3 min, washing cells with FACS buffer, and then blocking Fc receptors on the cells with Fc block (human TruStain FcX™, BioLegend Cat. #422302) on ice for 10 min. After washing, 50,000 cells/50 ul in FACS buffer was added to each well of a 96-well round bottomed plate (Costar, Cat. #3797), and 50 ul of serially diluted (0.06 nM-1.0 uM) test or isotype control antibody was added into duplicate wells. The plate was covered and incubated on ice for 1 h. After washing, Phycoerythrin (PE) conjugated anti-human IgG secondary antibody (Abcam; Cat. #ab99825) was added to each well and the plate incubated in the dark on ice for 30 min. After washing, the cells were fixed (1% paraformaldhyde).

[9] = biological target: T4, Biotin PSGL-1(42-62) Y46A peptide; test: ELISA, streptavidin-bound Ala peptide
[10] = biological target: T9, Biotin PSGL-1(42-62) E45A peptide (C-terminal Lys-biotin); test: ELISA, streptavidin-bound Ala peptide
T9 peptide: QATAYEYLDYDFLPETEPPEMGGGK

B1: 03D07 (antibody, IgG4, V domains shown)
VH: EVKLLESGGGLVQPGGSLRLSCAASGFTFSSYALSWVRQAPGKGLEWVSAISGSGGNTYYADSVKGRFTISRDNSKNTLYLQMNSLRAEDTAVYYCAKVVGATNYWGQGTLVTVSS
VL: DIVMTQTPLSLPVTLGQPASISCRSSQSLVYSDGHTYLSWFHQRPGQSPRRLIYKVSIRDSGVPDRFSGSGSGTDFTLKISRVEAEDVGVYYCMQRLQIPLTFGGGTKVEIK
For B1, the EC50 [1] was > 3000 nM.

B2: 43B6 (antibody, V domains shown)
VH: EVQLQQSGPDLVKPGALVKISCKASGYSFTAYYIHWVKQSHGKSLEWIGRVNPNTGGTSYNPKFKGKAILNVDKSSSTAYMELRSLTSEDSAVYYCARSGSPYYRYDDWGQGTTLTVSS
VL: ENVLTQSPAIMSASPGEKVTMTCRASSTVNSTYLHWFQQKSGASPKLWIYGSSNLASGVPARFSGSGSGTSYSLTISSVEAEDAATYYCQQYSGYPLTFGAGTTLELK
notes: Control anti-PSGL-1 mAb, recombinant; only variable domains given; also called 43B3
In the case of B2, the EC50 [2] is reported as 4.25 nM, the “EC50 (read off the curve)” value [3] is reported as ~0.4 nM and the binding result [4] is reported as “binds”.

B3: 18F02 (antibody, V domains shown)
VH: QVQLQQPGAELVKPGASVKLSCKASGYTFTSYWMHWVKQRPGQGLEWIGMIHPNSGRTNYNEKFKSKATLTVDKSSSTAYMQLSSLTSEDSAVYYCARSDYWGQGTTLTVSS
VL: DIVMTQAAFSNPVTLGTSASISCRSSKSLLHSDGITYLYWFLQRPGQSPQLLIYRMSNLASGVPDRFSGSGSGTDFTLRISRVEAEDVGVYYCAQMLEFPRTFGGGTKLEIK
notes: From mouse immunisation; only variable domains given
For B3, the EC50 [5] was 4.27 nM, the binding result [4] was “binds” and the binding result [6] was “no binding (tested: 10 nM)”. B3: no binding (tested: 10 nM) [7].

B4: 19L04 (antibody, IgG4, V domains shown)
VH: QIQLVQSGPELKKPGETVKISCKASGYTFTTYGMSWVKQAPGKGLKWMGWINTYSGVPTYADDFKGRFAFSLETSASTAYLQINNLKIEDTATYFCARHYYGSHYFDYWGQGTTLTVSS
VL: DIMMTQSPSSLAMSVGQKVTLRCKSSQSLLNSSNQKNYLAWYQQKPGQSPKLLVYFASTRESGVPVRFIGSGSGTDFTLTISSMQAEDLADYFCQQHYFSPLTFGAGTKLELK
notes: as for B3
Binder B4 has an EC50 [8] of 2 nM.

B5: 16L15 (antibody, V domains shown)
VH: DVKLVESGGGLVKLGGSLKLSCAASGFTFSSYYMSWVRQTPEKRLEWVATISNGGGSTYYPDSVKDRFTISRDNAKNTLYLQMSSLNSEDTAVYYCAKPLYYSNPWFAYWGQGTLVTVSA
VL: DVLLTQTPLSLPVSLGDQASISCRSSQSIVHSNGNTYLEWYLQKPGQSPKLLIYKVSNRFSGVPDRFSGSGSGTDFTLKISRVEAEDLGVYYCFQGSHVPRTFGGGTKLEIK
notes: as for B3
For B5, the EC50 [9] was 4.44 nM, the EC50 [10] was 5.34 nM and the binding result [3] was “no binding (tested: Log M -7.7 (about 20 nM))”.

B6: 20I15 (antibody, V domains shown)
VH: EVKLVESGGGLVQPGGSLSLSCAASGFTFTDYYMSWVRQPPGKALEWLGFIRNKANGYTTEYSASVKGRFTISRDNSQSILYLQMNALRAEDSATYYCARTYLRRGYFDVWGTGTTVTVSS
VL: DIVLTQSPASLAVSLGQRATISCRASKSVSTSGYSYMHWFQQKPGQPPKLLIYLASNLESGVPARFSGSGSGTDFTLNIHPVEEEDAATYYCQHSRELPLTFGAGTKLELK
notes: From mouse immunisation; only variable domains given; also called 20115
B6 showed an EC50 [1] of ~3000 nM and an EC50 [8] of 1.4 nM.

B7: 18K07 (antibody, V domains shown)
VH: QIQLVQSGPELKKPGETVKISCEASGYTFTTYGMNWVKQAPGKGLKWMGWINTYSGVPTYADDFQGRFAFSVETSATTAYLQINNLKNEDAATYFCARSDDTYYGFAYWGQGTLVTVSA
VL: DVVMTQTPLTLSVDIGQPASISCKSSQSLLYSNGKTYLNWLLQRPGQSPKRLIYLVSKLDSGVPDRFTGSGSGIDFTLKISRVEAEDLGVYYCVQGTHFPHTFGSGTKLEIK
notes: as for B3
B7: no binding (tested: 10 nM) [6]; no binding (tested: 10 nM) [7].
